Measurements reported in US20200399712A1, “COMPOSITIONS AND METHODS FOR THE DIAGNOSIS AND DETECTION OF TUMORS AND CANCER PROGNOSIS” (priority 2018, published 2020).
Marks after values point to notes of the source that are not given here.

Experiments:
[1] = test system: HPV-16 genome; assay: qPCR sensitivity against HPV-16 copy number (known-copy HPV-16 DNA among 10 ng normal human DNA); details: for reaction under 30 copies of HPV-16 genome: among 10 ng normal DNA, triplicate qPCR; for number of reactions against 10 HPV-16 copies / number of reactions under 30 HPV-16 copies: samples tested 3 times, 10 ng DNA from healthy individual
Source text: All samples were run in triplicates.
To seek the most promising primer-probe set in the viewpoint of sensitivity, Applicants evaluated the sensitivity analysis for these candidate primer-probe sets. […] Therefore, the sensitivity of E6 (FIG. 3A) and E7 (FIG. 3B) was also 30 copies. […] The candidate primer-probe sets were the “Min-4” (FIG. 3C), “Min-5” (FIG. 3D), “Min-6” (FIG. 3E), “Max-10” (FIG. 3F), “E6-11” (FIG. 3G), “E6-13” (FIG. 3H), respectively.
In addition, Applicants performed sensitivity analysis to identify the most sensitive primer/probe set from among the candidate sets.
To validate the function of primer/probe sets, Applicants calculated the slope of delta Rn against cycle threshold for HPV-16 copy number detection from defined HPV copy number DNA derived from CaSki cell line.

[2] = test system: HPV-16; assay: qPCR sensitivity against HPV-HNSCC tumor samples diluted among 10 ng normal human DNA; details: for sensitivity under 100 cells / sensitivity under single cells / sensitivity under 10 cells: 32 HPV-HNSCC tumor samples; for sensitivity under single cells: 6.6 pg DNA; for sensitivity under 10 cells: 66 pg DNA; for Sensitivity, 1 cell / Sensitivity, 3 cells / Sensitivity, 10 cells / Sensitivity, 30 cells / Sensitivity, 100 cells: tumor DNA dilution, fraction of 32 samples
Description: Quantitative real-time polymerase chain reaction (qRT-PCR) was used to examine the threshold in each experiment. qRT-PCR was performed using Quant Studio 6 Flex Real-Time PCR System (Thermo Fisher Scientific). All samples were run in triplicates. HPV-16 viral amplicon copy number estimations were developed using the CaSki cell line. After amplification of the amplicon by PCR, DNA concentration was calculated by weight NanoDrop®, then converted to DNA copy number by calculation based on the molecular weight of the double stranded amplicon. […] In the other 32 HPV-HNSCC cohort, Applicants diluted the tumor sample to 990 pg, 198 pg, 99 pg, 39.6 pg, 7.9 pg, 3.2 pg, and 1.6 pg of amount tumor weight, (correspond to 150, 30, 15, 6, 1.2, 0.6, and 0.3 cells: assumption that 1 tumor cell have 6.6 pg DNA (=3*10^9 (human DNA genome bp)*2 (diploid)*1.67*10^(−24) g (weight/Dalton))) combined with 10 ng normal leukocyte human DNA and compare the threshold of each primer-probe sets.
In this regard, Applicants investigated the other 32 HPV-HNSCC tumor samples. From the assumption that 1 cell tumor DNA contain 6.6 pg DNA, Applicants made the dilution series by DNA derived from normal lymphocyte as described and decide the threshold for each primer-probe set.
Furthermore, to determine whether these designed primer/probe sets also have a high sensitivity in a separate cohort, Applicants performed PCR in a validation cohort of 32 additional primary tumor samples with validated presence of HPV-16. Applicants prepared serial of dilutions of tumor DNA in normal lymphocyte DNA from non-cancer individuals and determined the threshold for each primer/probe set and defined amplification thresholds expressed in number of tumor cells for each sample (Table 5).

B1: BR E1-4: HPV-16 E1 region primer/probe set, SEQ ID NO: 37-39 (nucleic acid)
DNA 1: ATGCACAATTGGCAGACACTA
DNA 2: ACAATCCTTTACAATTTTTGCCTGT
DNA 3: TAATGCAAGTGCCTTTCTAAAAAGT
modifications: chemistry not given here
- reaction under 30 copies of HPV-16 genome [1]: consistently amplified
- reaction under 30 copies of HPV-16 genome ([1]; listed as Min-4): react consistently
- number of reactions against 10 HPV-16 copies [1]: 2 reactions
- number of reactions under 30 HPV-16 copies [1]: 3 reactions
- sensitivity under 100 cells [2]: 93.8%
- sensitivity under single cells [2]: 21.9%
- sensitivity under 10 cells [2]: 78.1%
- Threshold of tumor cell numbers for HPV-16 detection ([2]; Sample # 1): 150.0 tumor cells
- Threshold of tumor cell numbers for HPV-16 detection ([2]; Sample # 2): 150.0 tumor cells
- Threshold of tumor cell numbers for HPV-16 detection ([2]; Sample # 3): 1.2 tumor cells
- Threshold of tumor cell numbers for HPV-16 detection ([2]; Sample # 4): 6.0 tumor cells
- Threshold of tumor cell numbers for HPV-16 detection ([2]; Sample # 5): 30.0 tumor cells
- Threshold of tumor cell numbers for HPV-16 detection ([2]; Sample # 6): 30.0 tumor cells
- Threshold of tumor cell numbers for HPV-16 detection ([2]; Sample # 7): 30.0 tumor cells
- Threshold of tumor cell numbers for HPV-16 detection ([2]; Sample # 8): 50.0 tumor cells
- Threshold of tumor cell numbers for HPV-16 detection ([2]; Sample # 9): 1.2 tumor cells
- Threshold of tumor cell numbers for HPV-16 detection ([2]; Sample # 10): 1.2 tumor cells
- Threshold of tumor cell numbers for HPV-16 detection ([2]; Sample # 11): 1.2 tumor cells
- Threshold of tumor cell numbers for HPV-16 detection ([2]; Sample # 12): 3.0 tumor cells
- Threshold of tumor cell numbers for HPV-16 detection ([2]; Sample # 13): 6.0 tumor cells
- Threshold of tumor cell numbers for HPV-16 detection ([2]; Sample # 14): 6.0 tumor cells
- Threshold of tumor cell numbers for HPV-16 detection ([2]; Sample # 15): 6.0 tumor cells
- Threshold of tumor cell numbers for HPV-16 detection ([2]; Sample # 16): 6.0 tumor cells
- Threshold of tumor cell numbers for HPV-16 detection ([2]; Sample # 17): 6.0 tumor cells
- Threshold of tumor cell numbers for HPV-16 detection ([2]; Sample # 18): 1.2 tumor cells
- Threshold of tumor cell numbers for HPV-16 detection ([2]; Sample # 19): 0.3 tumor cells
- Threshold of tumor cell numbers for HPV-16 detection ([2]; Sample # 20): 1.2 tumor cells
- Threshold of tumor cell numbers for HPV-16 detection ([2]; Sample # 21): 0.6 tumor cells
- Threshold of tumor cell numbers for HPV-16 detection ([2]; Sample # 22): 0.3 tumor cells
- Threshold of tumor cell numbers for HPV-16 detection ([2]; Sample # 23): 1.2 tumor cells
- Threshold of tumor cell numbers for HPV-16 detection ([2]; Sample # 24): 0.6 tumor cells
- Threshold of tumor cell numbers for HPV-16 detection ([2]; Sample # 25): 1.2 tumor cells
- Threshold of tumor cell numbers for HPV-16 detection ([2]; Sample # 26): 0.6 tumor cells
- Threshold of tumor cell numbers for HPV-16 detection ([2]; Sample # 27): 0.6 tumor cells
- Threshold of tumor cell numbers for HPV-16 detection ([2]; Sample # 28): 1.0 tumor cells
- Threshold of tumor cell numbers for HPV-16 detection ([2]; Sample # 29): 1.0 tumor cells
- Threshold of tumor cell numbers for HPV-16 detection ([2]; Sample # 30): 30.0 tumor cells
- Threshold of tumor cell numbers for HPV-16 detection ([2]; Sample # 31): 0.6 tumor cells
- Threshold of tumor cell numbers for HPV-16 detection ([2]; Sample # 32): 9.0 tumor cells
- Sensitivity, 1 cell [2]: 0.219
- Sensitivity, 3 cells [2]: 0.531*
- Sensitivity, 10 cells [2]: 0.781*
- Sensitivity, 30 cells [2]: 0.875
- Sensitivity, 100 cells [2]: 0.938

B2: BR E1-6: HPV-16 E1 region primer/probe set, SEQ ID NO: 43-45 (nucleic acid)
DNA 1: ATGCACAATTGGCAGACACTAA
DNA 2: AATCCTTTACAATTTTTGCCTGTGA
DNA 3: AGTAATGCAAGTGCCTTTCTAAAAAGTA
modifications: chemistry not given here
- reaction under 30 copies of HPV-16 genome [1]: consistently amplified
- reaction under 30 copies of HPV-16 genome ([1]; listed as Min-6): react consistently
- number of reactions against 10 HPV-16 copies [1]: 2 reactions
- number of reactions under 30 HPV-16 copies [1]: 3 reactions
- sensitivity under 100 cells [2]: 87.5%
- sensitivity under single cells [2]: 15.6%
- sensitivity under 10 cells [2]: 62.5%
- Threshold of tumor cell numbers for HPV-16 detection ([2]; Sample # 1): 150.0 tumor cells
- Threshold of tumor cell numbers for HPV-16 detection ([2]; Sample # 2): 150.0 tumor cells
- Threshold of tumor cell numbers for HPV-16 detection ([2]; Sample # 3): 30.0 tumor cells
- Threshold of tumor cell numbers for HPV-16 detection ([2]; Sample # 4): 30.0 tumor cells
- Threshold of tumor cell numbers for HPV-16 detection ([2]; Sample # 5): 30.0 tumor cells
- Threshold of tumor cell numbers for HPV-16 detection ([2]; Sample # 6): 50.0 tumor cells
- Threshold of tumor cell numbers for HPV-16 detection ([2]; Sample # 7): 150.0 tumor cells
- Threshold of tumor cell numbers for HPV-16 detection ([2]; Sample # 8): 15.0 tumor cells
- Threshold of tumor cell numbers for HPV-16 detection ([2]; Sample # 9): 30.0 tumor cells
- Threshold of tumor cell numbers for HPV-16 detection ([2]; Sample # 10): 6.0 tumor cells
- Threshold of tumor cell numbers for HPV-16 detection ([2]; Sample # 11): 6.0 tumor cells
- Threshold of tumor cell numbers for HPV-16 detection ([2]; Sample # 12): 30.0 tumor cells
- Threshold of tumor cell numbers for HPV-16 detection ([2]; Sample # 13): 6.0 tumor cells
- Threshold of tumor cell numbers for HPV-16 detection ([2]; Sample # 14): 6.0 tumor cells
- Threshold of tumor cell numbers for HPV-16 detection ([2]; Sample # 15): 6.0 tumor cells
- Threshold of tumor cell numbers for HPV-16 detection ([2]; Sample # 16): 30.0 tumor cells
- Threshold of tumor cell numbers for HPV-16 detection ([2]; Sample # 17): 6.0 tumor cells
- Threshold of tumor cell numbers for HPV-16 detection ([2]; Sample # 18): 1.2 tumor cells
- Threshold of tumor cell numbers for HPV-16 detection ([2]; Sample # 19): 1.2 tumor cells
- Threshold of tumor cell numbers for HPV-16 detection ([2]; Sample # 20): 6.0 tumor cells
- Threshold of tumor cell numbers for HPV-16 detection ([2]; Sample # 21): 1.2 tumor cells
- Threshold of tumor cell numbers for HPV-16 detection ([2]; Sample # 22): 0.3 tumor cells
- Threshold of tumor cell numbers for HPV-16 detection ([2]; Sample # 23): 1.2 tumor cells
- Threshold of tumor cell numbers for HPV-16 detection ([2]; Sample # 24): 1.2 tumor cells
- Threshold of tumor cell numbers for HPV-16 detection ([2]; Sample # 25): 1.2 tumor cells
- Threshold of tumor cell numbers for HPV-16 detection ([2]; Sample # 26): 0.3 tumor cells
- Threshold of tumor cell numbers for HPV-16 detection ([2]; Sample # 27): 0.6 tumor cells
- Threshold of tumor cell numbers for HPV-16 detection ([2]; Sample # 28): 0.6 tumor cells
- Threshold of tumor cell numbers for HPV-16 detection ([2]; Sample # 29): 3.0 tumor cells
- Threshold of tumor cell numbers for HPV-16 detection ([2]; Sample # 30): 150.0 tumor cells
- Threshold of tumor cell numbers for HPV-16 detection ([2]; Sample # 31): 0.6 tumor cells
- Threshold of tumor cell numbers for HPV-16 detection ([2]; Sample # 32): 9.0 tumor cells
- Sensitivity, 1 cell [2]: 0.156
- Sensitivity, 3 cells [2]: 0.344
- Sensitivity, 10 cells [2]: 0.625
- Sensitivity, 30 cells [2]: 0.844
- Sensitivity, 100 cells [2]: 0.875

B3: BR E6-1: HPV-16 E6 region (172-373 bp) primer/probe set, SEQ ID NO: 58-60 (nucleic acid)
DNA 1: CAGTTACTGCGACGTGAGGT
DNA 2: ACAGCATATGGATTCCCATCTC
DNA 3: ACTTTGCTTTTCGGGATTTATGCATAGTA
modifications: chemistry not given here
- reaction under 30 copies of HPV-16 genome [1]: consistently amplified
- reaction under 30 copies of HPV-16 genome ([1]; listed as E6-11): react consistently
- number of reactions against 10 HPV-16 copies [1]: one
- number of reactions under 30 HPV-16 copies [1]: 3 reactions
- sensitivity under 100 cells [2]: 87.5%
- sensitivity under single cells [2]: 3.1%
- sensitivity under 10 cells [2]: 46.9%
- Threshold of tumor cell numbers for HPV-16 detection ([2]; Sample # 1): 150.0 tumor cells
- Threshold of tumor cell numbers for HPV-16 detection ([2]; Sample # 2): 30.0 tumor cells
- Threshold of tumor cell numbers for HPV-16 detection ([2]; Sample # 3): 150.0 tumor cells
- Threshold of tumor cell numbers for HPV-16 detection ([2]; Sample # 4): 60.0 tumor cells
- Threshold of tumor cell numbers for HPV-16 detection ([2]; Sample # 5): 30.0 tumor cells
- Threshold of tumor cell numbers for HPV-16 detection ([2]; Sample # 6): 60.0 tumor cells
- Threshold of tumor cell numbers for HPV-16 detection ([2]; Sample # 7): 30.0 tumor cells
- Threshold of tumor cell numbers for HPV-16 detection ([2]; Sample # 8): 150.0 tumor cells
- Threshold of tumor cell numbers for HPV-16 detection ([2]; Sample # 9): 30.0 tumor cells
- Threshold of tumor cell numbers for HPV-16 detection ([2]; Sample # 10): 30.0 tumor cells
- Threshold of tumor cell numbers for HPV-16 detection ([2]; Sample # 11): 30.0 tumor cells
- Threshold of tumor cell numbers for HPV-16 detection ([2]; Sample # 12): 15.0 tumor cells
- Threshold of tumor cell numbers for HPV-16 detection ([2]; Sample # 13): 60.0 tumor cells
- Threshold of tumor cell numbers for HPV-16 detection ([2]; Sample # 14): 60.0 tumor cells
- Threshold of tumor cell numbers for HPV-16 detection ([2]; Sample # 15): 30.0 tumor cells
- Threshold of tumor cell numbers for HPV-16 detection ([2]; Sample # 16): 6.0 tumor cells
- Threshold of tumor cell numbers for HPV-16 detection ([2]; Sample # 17): 6.0 tumor cells
- Threshold of tumor cell numbers for HPV-16 detection ([2]; Sample # 18): 1.2 tumor cells
- Threshold of tumor cell numbers for HPV-16 detection ([2]; Sample # 19): 6.0 tumor cells
- Threshold of tumor cell numbers for HPV-16 detection ([2]; Sample # 20): 1.2 tumor cells
- Threshold of tumor cell numbers for HPV-16 detection ([2]; Sample # 21): 1.2 tumor cells
- Threshold of tumor cell numbers for HPV-16 detection ([2]; Sample # 22): 6.0 tumor cells
- Threshold of tumor cell numbers for HPV-16 detection ([2]; Sample # 23): 1.2 tumor cells
- Threshold of tumor cell numbers for HPV-16 detection ([2]; Sample # 24): 1.2 tumor cells
- Threshold of tumor cell numbers for HPV-16 detection ([2]; Sample # 25): 1.2 tumor cells
- Threshold of tumor cell numbers for HPV-16 detection ([2]; Sample # 26): 1.2 tumor cells
- Threshold of tumor cell numbers for HPV-16 detection ([2]; Sample # 27): 1.0 tumor cells
- Threshold of tumor cell numbers for HPV-16 detection ([2]; Sample # 28): 1.0 tumor cells
- Threshold of tumor cell numbers for HPV-16 detection ([2]; Sample # 29): 1.0 tumor cells
- Threshold of tumor cell numbers for HPV-16 detection ([2]; Sample # 30): 150.0 tumor cells
- Threshold of tumor cell numbers for HPV-16 detection ([2]; Sample # 31): 0.6 tumor cells
- Threshold of tumor cell numbers for HPV-16 detection ([2]; Sample # 32): 15.0 tumor cells
- Sensitivity, 1 cell [2]: 0.031
- Sensitivity, 3 cells [2]: 0.344
- Sensitivity, 10 cells [2]: 0.469
- Sensitivity, 30 cells [2]: 0.750
- Sensitivity, 100 cells [2]: 0.875
